Laboratory results taken from patent publication US20090068679A1.

Columns and labels:
[1] = molecular target: recombinant human PlGF (R&D Systems, Catalog No. 264-PG/CF) (human) (UniProt P49763); test: sandwich ELISA: mAb coated 3 ug/ml; PlGF 12.5 ng/ml; anti-PlGF-POD
[2] = molecular target: P/GF/sFlt-1 complex (gP/GF) (human) (UniProt P49763); test: sandwich ELISA: mAb coated 3 ug/ml; PlGF 6.25 + Flt-1/Fc 400 (ng/ml) pre-incubated; anti-VEGF R1-POD
[3] = molecular target: recombinant human PlGF (R&D Systems, Catalog No. 264-PG/CF) (human) (UniProt P49763); test: sandwich ELISA: mAb 1.0 ug/ml on anti-mouse IgG plate, PlGF 0.1 ug/ml, anti-PlGF-POD
[4] = molecular target: P/GF/sFlt-1 complex (gP/GF) (human) (UniProt P49763); test: sandwich ELISA: mAb coated 3 ug/ml; PlGF 3.13 + Flt-1/Fc 400 (ng/ml) pre-incubated; anti-VEGF R1-POD
[5] = molecular target: recombinant human PlGF (R&D Systems, Catalog No. 264-PG/CF) (human) (UniProt P49763); test: sandwich ELISA: mAb 0.1 ug/ml on anti-mouse IgG plate, PlGF 0.1 ug/ml, anti-PlGF-POD
[6] = molecular target: P/GF/sFlt-1 complex (gP/GF) (human) (UniProt P49763); test: sandwich ELISA: mAb coated 3 ug/ml; PlGF 0.39 + Flt-1/Fc 400 (ng/ml) pre-incubated; anti-VEGF R1-POD
[7] = molecular target: P/GF/sFlt-1 complex (gP/GF) (human) (UniProt P49763); test: sandwich ELISA: mAb coated 3 ug/ml; PlGF 0.78 + Flt-1/Fc 400 (ng/ml) pre-incubated; anti-VEGF R1-POD
[8] = molecular target: P/GF/sFlt-1 complex (gP/GF) (human) (UniProt P49763); test: sandwich ELISA: mAb coated 3 ug/ml; PlGF 25 + Flt-1/Fc 400 (ng/ml) pre-incubated; anti-VEGF R1-POD
[9] = molecular target: recombinant human PlGF (R&D Systems, Catalog No. 264-PG/CF) (human) (UniProt P49763); test: sandwich ELISA: mAb coated 3 ug/ml; PlGF 0.78 ng/ml; anti-PlGF-POD
[10] = molecular target: P/GF/sFlt-1 complex (gP/GF) (human) (UniProt P49763); test: sandwich ELISA: mAb coated 3 ug/ml; PlGF 1.56 + Flt-1/Fc 400 (ng/ml) pre-incubated; anti-VEGF R1-POD
[11] = molecular target: recombinant human PlGF (R&D Systems, Catalog No. 264-PG/CF) (human) (UniProt P49763); test: sandwich ELISA: mAb coated 3 ug/ml; PlGF 6.25 ng/ml; anti-PlGF-POD
[12] = molecular target: recombinant human PlGF (R&D Systems, Catalog No. 264-PG/CF) (human) (UniProt P49763); test: sandwich ELISA: mAb coated 3 ug/ml; PlGF 25 ng/ml; anti-PlGF-POD
[13] = molecular target: recombinant human PlGF (R&D Systems, Catalog No. 264-PG/CF) (human) (UniProt P49763); test: sandwich ELISA: mAb coated 3 ug/ml; PlGF 50 ng/ml; anti-PlGF-POD
[14] = molecular target: P/GF/sFlt-1 complex (gP/GF) (human) (UniProt P49763); test: ELISA: PlGF 1 ug/ml on plate-captured Flt-1/Fc 1 ug/ml; mAb 1.0 ug/ml; anti-mouse IgG-POD
[15] = molecular target: P/GF/sFlt-1 complex (gP/GF) (human) (UniProt P49763); test: sandwich ELISA: mAb coated 3 ug/ml; PlGF 12.5 + Flt-1/Fc 400 (ng/ml) pre-incubated; anti-VEGF R1-POD
[16] = molecular target: recombinant human PlGF (R&D Systems, Catalog No. 264-PG/CF) (human) (UniProt P49763); test: sandwich ELISA: mAb coated 3 ug/ml; PlGF 1.56 ng/ml; anti-PlGF-POD
[17] = molecular target: recombinant human PlGF (R&D Systems, Catalog No. 264-PG/CF) (human) (UniProt P49763); test: sandwich ELISA: mAb coated 3 ug/ml; PlGF 3.13 ng/ml; anti-PlGF-POD
[18] = molecular target: P/GF/sFlt-1 complex (gP/GF) (human) (UniProt P49763); test: ELISA: PlGF 1 ug/ml on plate-captured Flt-1/Fc 1 ug/ml; mAb 0.1 ug/ml; anti-mouse IgG-POD

Extinction at 450 nm [1]: 0.885 | Extinction at 450 nm [2]: 0.883 | Extinction at 450 nm [3]: 2.5 | Extinction at 450 nm [4]: 0.529 | Extinction at 450 nm [5]: 1.9 | Extinction at 450 nm [6]: 0.094 | Extinction at 450 nm [7]: 0.146 | Extinction at 450 nm [8]: 2.19 | Extinction at 450 nm [9]: 0.05 | Extinction at 450 nm [10]: 0.272 | Extinction at 450 nm [11]: 0.468 | Extinction at 450 nm [12]: 1.47 | Extinction at 450 nm [13]: 2.5 | Extinction at 450 nm [14]: 0.691 | Extinction at 450 nm [15]: 1.61 | Extinction at 450 nm [16]: 0.081 | Extinction at 450 nm [17]: 0.232 | Extinction at 450 nm [18]: 0.217
Substance: antibody MAB264 from R&D Systems
